The text below walks through data of patent US10815297B2, “Antagonists of IL17C for the treatment of inflammatory disorders” (MorphoSys AG, priority 2011, dated 2020).

Common to all, as to format: in vivo
In assay [1] the test system is mouse CIA model (DBA1/J mice). The assay can be described thus: Mouse collagen induced arthritis (CIA) model, therapeutic protocol. The settings on record: 10 mg/kg, 3x week, i.p., day 31 to day 46. Here is the method: (§1) DBA1/J mice (male, 6-7 weeks old, approx 20 gram) were obtained from Centre d'Elevage Regional Janvier (Laval, France). Mice were kept on a 12 hr light/dark cycle (0700-1900). Temperature was maintained at 22° C., and food and water were provided ad libitum.
One day before the experiment, CII solution (2 mg/mL) was prepared with 0.05 M acetic acid and stored at 4° C. Just before the immunization, equal volumes of adjuvant […] and CII were mixed by a homogenizer in a pre-cooled glass bottle in an ice water bath. Extra adjuvant and prolonged homogenization may be required if an emulsion is not formed. 0.1 mL of the emulsion was injected intradermally at the base of the tail of each mouse on day 1, a second booster intradermal injection (CII solution at 2 mg/mL in […] 0.1 mLemulsion) was performed on day 21. This immunization method was modified from published methods (Brand et al, 2007, Collagen-induced arthritis. Nature Protocols; vol 2 (5): 1269-1275; Lin et al., 2007, Anti-rheumatic activities of histone deacetylase (HDAC) inhibitors in vivo in collagen-induced arthritis in rodents. Br J Pharmacol. April; 150 (7):829-31).
The therapeutic effects of the antibodies were tested in the mouse CIA model. Mice were randomly divided into equal groups and each group contained 10 mice. All mice were immunized on day 1 and boosted on day 21. Therapeutic dosing lasted from day 31 to day 46. The negative control group was treated with vehicle (PBS) and the positive control group with Enbrel (10 mg/kg, 3× week, i.p.). An antibody of interest was tested at 10 mg/kg, i.p. 3 times per week.
Anti-IL17C antibodies were administered i.p. three times a week at 10 mg/kg. […]
(§2) Arthritis was scored according to the method of Khachigian 2006 (Collagen antibody-induced arthritis. (2006) Nature Protocols 1, 2512-6), Lin et al 2007 (supra); Nishida et al. 2004 (Histone deacetylase inhibitor suppression of autoantibody-mediated arthritis in mice via regulation of p16INK4a and p21(WAF1/Cip1) expression. Arthritis Rheum. 10: 3365-76); and Brand et al. 2007 (supra). […]

Assay [2] deals with mouse CIA model (DBA1/J mice). In words: Mouse collagen induced arthritis (CIA) model, preventative protocol. The settings on record: 10 mg/kg, 3x week, i.p., day 21 to day 46. Here is the method: as §1
One day before the experiment, CII solution (2 mg/mL) was prepared with 0.05 M acetic acid and stored at 4° C. Just before the immunization, equal volumes of adjuvant […] and CII were mixed by a homogenizer in a pre-cooled glass bottle in an ice water bath. Extra adjuvant and prolonged homogenization may be required if an emulsion is not formed. 0.1 mL of the emulsion was injected intradermally at the base of the tail of each mouse on day 1, a second booster intradermal injection (CII solution at 2 mg/mL in […] 0.1 mLemulsion) was performed on day 21. […]
as §2

The subject of assay [3] is BALB/c female mice, LPS-induced acute lung neutrophilia. The assay can be described thus: Intranasal instillation of LPS, mouse model of acute lung neutrophilia. The note with it: single treatment 5 mg/kg i.p. 24 hours before LPS instillation; BAL 24 hours after LPS. Here is the method:
Two independent studies were conducted with one negative mAb and two positive mAbs in the intranasal instillation of Lipopolysaccharide (LPS) mouse model of acute lung neutrophilia, a model which mimics some relevant aspects of COPD (Chronic Obstructive Pulmonary Disease). The effects were measured by Broncho Alveolar Lavage (BAL) inflammatory cell counting.
Several groups of mice were treated with different antibodies and Dexamethasone and compared to the mice subjected to LPS only.
BALB/c female mice from Harlan (France) were used in the study. Mice weight was around 20 g.
Mice were anesthetized by isoflurane inhalation. During the breathing, LPS was instilled intranasally. After 24 h, mice were anesthetized intra-peritoneally (IP) and Broncho Alveolar Lavage procedure was performed. Mice were anesthetized by injection of anaesthetic solution of 0.1 mL per 10 g of the mouse weight. The anaesthetic solution was composed of 18 ml 0.9% NaCl, 0.5 mL xylazine (5 mg/Kg) and 1.5 mL ketamine (75 mg/Kg).
The trachea was exposed through midline incision and canulated (with a mice catheter). BAL was performed twice using 1 mL of sterile PBS buffer. […] The cells were counted using a cell counter (Vet abc, France). […]
For all groups, BAL was performed 24 hours after LPS administration and cell counts were measured.
The results were analyzed using Student t-test. […]

B1: MOR12762: anti-mouse IL17C HuCAL antibody; CDRs SEQ ID NO: 171-176, VL 177, VH 178; human/mouse chimeric IgG2a (antibody, V domains shown)
VH: EVQLVQSGAEVKKPGESLKISCKGSGYSFNNYWIAWVRQMPGKGLEWMGFIYPSNSATQYSPSFQGQVTISADKSISTAYLQWSSLKASDTAMYYCARDNEYSDSYFDVWGQGTLVTVSS
VL: DIVLTQSPATLSLSPGERATLSCRASQIVSSYLAWYQQKPGQAPRLLIYDASSRATGIPARFSGSGSGTDFTLTISSLEPEDFAVYYCQQSEQVPTTFGQGTKVEIKRT
modifications: mouse IgG2a constant regions; VH; VL
As for B1, the “inhibition of inflammation / disease progression (clinical score)” value in assay [1] is on record as “significant inhibition”. For the same molecule, in assay [2], the “inhibition of bone degradation / bone erosion (Larsen score)” value is “significant inhibition” and the “inhibition of inflammation (clinical score)” value is recorded as “significant inhibition”. In addition, in assay [3], the “inhibition of the recruitment of inflammatory cells into the BALF” value is “inhibited significantly”.
